Results from patent US20070218504A1, “HUMAN LEPTIN-DERIVED POLYPEPTIDES AND USES THEREOF” (UNIVERSITY OF PITTSBURGH, priority 2006, published 2007).

Target: T1, recombinant human leptin (Homo sapiens, UniProt P41159)
T1 construct: purchased AF Parlow of NHPP, Torrance, CA
Assay: Immuno-precipitation assay of direct binding of human CRP and human leptin
Details: leptin/CRP mixture and human serum; Western blot with anti-CRP
Description: To explore a physical interaction between CRP and leptin, the direct binding of these proteins was determined by an immuno-precipitation assay. Rat CRP was purified from fresh rat serum to >95% purity employing a previously established affinity-purification protocol (20). […] The purified human- and rat-CRP proteins were pre-mixed with recombinant human and mouse leptin, respectively, before addition of antibodies specific for human- and mouse-leptin. The concentrations of CRP and leptin in the precipitation reaction were all within the physiological ranges that have been observed in humans or rats (11 & 15). In parallel experiments, recombinant leptin also was pre-mixed with human- or rat-serum to allow for direct interaction prior to immuno-precipitation. The protein precipitates obtained were subjected to Western blot assays using specific anti-CRP antibodies.

T1 sequence (P41159 22-167): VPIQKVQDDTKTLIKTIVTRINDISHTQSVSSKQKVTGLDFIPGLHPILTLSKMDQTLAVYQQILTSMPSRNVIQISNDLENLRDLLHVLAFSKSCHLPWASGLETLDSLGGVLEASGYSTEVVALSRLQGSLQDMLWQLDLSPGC

co-precipitation of CRP with anti-human leptin antibody: could pull down human CRP
Substance: human CRP: human C-reactive protein, purified preparation from a commercial source
